This is an account of results in article PMC11098083 (Proceedings of the National Academy of Sciences of the …, 2024).

First the molecules themselves.
B1: recombinant Mcm2 (GST tag removed) (natural protein)
chain: MSDNRRRRREEDDSDSENELPPSSPQQHFRGGMNPVSSPIGSPDMINPEGDDNEVDDVPDIDEVEEQMNEVDLMDDNMYEDYAADHNRDRYDPDQVDDREQQELSLSERRRIDAQLNERDRLLRNVAYIDDEDEEQEGAAQLDEMGLPVQRRRRRRQYEDLENSDDDLLSDMDIDPLREELTLESLSNVKANSYSEWITQPNVSRTIARELKSFLLEYTDETGRSVYGARIRTLGEMNSESLEVNYRHLAESKAILALFLAKCPEEMLKIFDLVAMEATELHYPDYARIHSEIHVRISDFPTIYSLRELRESNLSSLVRVTGVVTRRTGVFPQLKYVKFNCLKCGSILGPFFQDSNEEIRISFCTNCKSKGPFRVNGEKTVYRNYQRVTLQEAPGTVPPGRLPRHREVILLADLVDVSKPGEEVEVTGIYKNNYDGNLNAKNGFPVFATIIEANSIKRREGNTANEGEEGLDVFSWTEEEEREFRKISRDRGIIDKIISSMAPSIYGHRDIKTAVACSLFGGVPKNVNGKHSIRGDINVLLLGDPGTAKSQILKYVEKTAHRAVFATGQGASAVGLTASVRKDPITKEWTLEGGALVLADKGVCLIDEFDKMNDQDRTSIHEAMEQQSISISKAGIVTTLQARCSIIAAANPNGGRYNSTLPLAQNVSLTEPILSRFDILCVVRDLVDEEADERLATFVVDSHVRSHPENDEDREGEELKNNGESAIEQGEDEINEQLNARQRRLQRQRKKEEEISPIPQELLMKYIHYARTKIYPKLHQMDMDKVSRVYADLRRESISTGSFPITVRHLESILRIAESFAKMRLSEFVSSYDLDRAIKVVVDSFVDAQKVSVRRQLRRSFAIYTLGH
B2: recombinant glutathione S-transferase (GST)-Pol32 (natural protein, yeast (S. cerevisiae), UniProt P47110 1-350, looked up)
chain: MDQKASYFINEKLFTEVKPVLFTDLIHHLKIGPSMAKKLMFDYYKQTTNAKYNCVVICCYKDQTIKIIHDLSNIPQQDSIIDCFIYAFNPMDSFIPYYDIIDQKDCLTIKNSYELKVSESSKIIERTKTLEEKSKPLVRPTARSKTTPEETTGRKSKSKDMGLRSTALLAKMKKDRDDKETSRQNELRKRKEENLQKINKQNPEREAQMKELNNLFVEDDLDTEEVNGGSKPNSPKETDSNDKDKNNDDLEDLLETTAEDSLMDVPKIQQTKPSETEHSKEPKSEEEPSSFIDEDGYIVTKRPATSTPPRKPSPVVKRALSSSKKQETPSSNKRLKKQGTLESFFKRKAK

Experiment in all cases: pull-down
Test [1] has as its target T1, recombinant human histone H3.1–H4 tetramer (human, UniProt P68431 1-136; P62805 1-103).
The target of test [2] is T2, HIS-tagged N-terminal of yeast Pol1 (1 to 527 AA) (yeast (S. cerevisiae), UniProt P13382 1-527).
T2 sequence (looked up): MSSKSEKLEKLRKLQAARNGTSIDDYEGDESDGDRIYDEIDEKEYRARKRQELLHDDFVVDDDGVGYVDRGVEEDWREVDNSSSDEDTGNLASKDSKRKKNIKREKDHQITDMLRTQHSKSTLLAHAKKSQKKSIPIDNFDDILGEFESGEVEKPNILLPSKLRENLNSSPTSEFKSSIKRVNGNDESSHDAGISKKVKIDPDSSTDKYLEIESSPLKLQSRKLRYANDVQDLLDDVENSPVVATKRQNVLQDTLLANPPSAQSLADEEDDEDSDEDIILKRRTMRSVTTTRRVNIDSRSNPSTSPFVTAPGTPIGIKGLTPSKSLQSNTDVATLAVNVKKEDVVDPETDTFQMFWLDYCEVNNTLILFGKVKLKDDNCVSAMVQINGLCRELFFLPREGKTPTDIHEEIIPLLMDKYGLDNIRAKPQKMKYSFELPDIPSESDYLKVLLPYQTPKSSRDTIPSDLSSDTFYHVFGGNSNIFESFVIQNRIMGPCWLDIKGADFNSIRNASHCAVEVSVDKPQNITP

For test [3], the target named is B1.
Test [4] concerns the target T1, recombinant human histone H3.1–H4 …. The source holds these as a separate data set.

Read-outs that look alike come from different tables or passages of the source.

In the case of B1, the binding result in test [1] is on record as “binds”.
B2: the binding result in test [2], in test [3] and in test [4] was “binds” throughout.
